The text below walks through data of PMC11032457 (Proceedings of the National Academy of Sciences of the …, 2024).

The target in data set [1] is T1, TK0186 protein (Thermococcus kodakarensis, UniProt Q5JFM8).
T1 sequence (Q5JFM8 1-417): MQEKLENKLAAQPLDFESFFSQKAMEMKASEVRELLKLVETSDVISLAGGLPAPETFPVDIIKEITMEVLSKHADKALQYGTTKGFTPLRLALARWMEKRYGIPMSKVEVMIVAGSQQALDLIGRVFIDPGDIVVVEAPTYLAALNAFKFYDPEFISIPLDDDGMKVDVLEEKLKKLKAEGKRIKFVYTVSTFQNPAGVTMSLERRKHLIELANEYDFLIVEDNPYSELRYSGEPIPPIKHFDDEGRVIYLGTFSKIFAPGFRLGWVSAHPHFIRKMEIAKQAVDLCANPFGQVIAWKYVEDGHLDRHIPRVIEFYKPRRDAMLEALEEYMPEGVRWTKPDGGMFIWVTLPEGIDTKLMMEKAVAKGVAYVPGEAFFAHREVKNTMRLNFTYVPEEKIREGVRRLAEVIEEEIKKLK
Nature of the data set: glycine formation, HPLC. Type of data set: biochemical. Conditions: amino donor; 10 mM glyoxylate; 20 μM PLP; 50 mM HEPES pH 7.5; 80 °C.

For data set [2], the target named is T2, TK1094 protein (Thermococcus kodakarensis, UniProt Q5JE21).
T2 sequence (Q5JE21 1-399): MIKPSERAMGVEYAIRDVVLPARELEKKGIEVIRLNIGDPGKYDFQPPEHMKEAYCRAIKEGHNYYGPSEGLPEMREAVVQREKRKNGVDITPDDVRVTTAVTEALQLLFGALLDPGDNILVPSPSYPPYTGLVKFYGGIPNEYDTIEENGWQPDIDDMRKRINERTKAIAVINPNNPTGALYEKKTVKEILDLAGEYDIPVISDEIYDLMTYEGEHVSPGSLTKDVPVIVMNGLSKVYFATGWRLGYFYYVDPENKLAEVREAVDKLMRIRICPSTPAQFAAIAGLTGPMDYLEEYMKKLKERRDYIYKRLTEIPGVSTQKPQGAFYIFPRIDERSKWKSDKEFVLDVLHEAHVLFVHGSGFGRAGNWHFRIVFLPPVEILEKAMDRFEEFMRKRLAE
As to the kind of experiment: glycine formation, HPLC. Type of data set: biochemical. Conditions: amino donor; 10 mM glyoxylate; 20 μM PLP; 50 mM HEPES pH 7.5; 80 °C.

Substrate in data set [3]: O=C(O)CO
As to the kind of experiment: purified protein. The note with it: oxidation, 10 mM NAD+, 80 °C, 50 mM Tris pH 7.5.

Substrate in data set [4]: CC(C)C(=O)C(=O)O
Nature of the data set: purified protein. Conditions: reduction, 0.3 mM NADH, 85 °C, 50 mM Tris pH 7.5.

Substrate in data set [5]: CC[C@H](C)C(=O)C(=O)O
Nature of the data set: purified protein. The note with it: reduction, 0.3 mM NADH, 85 °C, 50 mM Tris pH 7.5.

Substrate in data set [6]: O=C(O)C(=O)CO
As to the kind of experiment: purified protein. The note with it: reduction, 0.3 mM NADH, 85 °C, 50 mM Tris pH 7.5.

Substrate in data set [7]: CC(=O)C(=O)O
As to the kind of experiment: purified protein. The note with it: reduction, 0.3 mM NADH, 85 °C, 50 mM Tris pH 7.5.

Substrate in data set [8]: C[C@@H](O)C(=O)O
Nature of the data set: purified protein. Conditions: oxidation, 10 mM NAD+, 80 °C, 50 mM Tris pH 7.5.

Substrate in data set [9]: CCCC(=O)C(=O)O
As to the kind of experiment: purified protein. Conditions: reduction, 0.3 mM NADH, 85 °C, 50 mM Tris pH 7.5.

Substrate in data set [10]: O=CC(=O)O
As to the kind of experiment: purified protein. The note with it: reduction, 0.3 mM NADH, 85 °C, 50 mM Tris pH 7.5.

Substrate in data set [11]: O=C(O)COP(=O)(O)O
As to the kind of experiment: purified protein. Conditions: 80 °C.

Substrate in data set [12]: O=C(COP(=O)(O)O)[C@H](O)[C@H](O)COP(=O)(O)O
As to the kind of experiment: purified protein. The note with it: 80 °C, 50 mM MES-NaOH pH 6.5, 10 mM MgCl2.

Substrate in data set [13]: O=C(CO)[C@H](O)[C@H](O)COP(=O)(O)O
Nature of the data set: purified protein. The note with it: 80 °C, 50 mM MES-NaOH pH 6.5, 10 mM MgCl2.

Substrate in data set [14]: O=C[C@H](O)[C@H](O)COP(=O)(O)O
As to the kind of experiment: purified protein. Conditions: 80 °C, 50 mM MES-NaOH pH 6.5, 10 mM MgCl2.

[15] abbreviates: 50 mM MES-NaOH pH 7.0, 10 mM MgCl2.
Where [16] appears, read: 50 mM MES-NaOH pH 6.5, 10 mM MgCl2.

As to `C[C@H](N)C(=O)O` [L-alanine], the “glycine formation, HPLC” value in data set [1] is “the most preferred amino donor was L-alanine (Fig. 3E)”; in [2] it was “In the case of the TK1094 protein, activity was observed with L-alanine and L-glutamate”.

B1: TK0551 protein (GLDH candidate) (Thermococcus kodakarensis KOD1) (protein)
chain: MRPRVLVTFKMKSKPVEELKKYADVDFLLYPSVEELAEKIKDYDGLIVSPLNRVPREVIERAERLKVISCHSAGYDHVDVEAATKKGIYVTKVSGVLSEAVAEFAVGLTIALLRKFVYTDKLIRRGEWDSHAKIWSTFKDIETVYGKKVGILGMGAIGKAIARRMKAMGTEILYWSRSRKEDIEAEVGAKYLPLDEVLRESDIVILALPATPETYHIINEERIKLLEGKYLVNIGRGTLVDEKAVVKAIEEGRLKGYATDVFEKEPVTEHPLFKYEWETVLTPHHAGLSKEAMEDMGFQAVMNLLAVLRGEIPKDLVNREVVKVRPPEEVKML
In general, Km refers to the substrate concentration at which the rate is half of its maximum. A word on the kcat: it is the maximal rate divided by the concentration of active sites. Usually kcat/Km stands for the turnover number divided by the Michaelis constant. Regarding B1, the Km in [3] was 24100 ± 1260 µM; in [4], 1900 ± 440 µM; in data set [5], 1930 ± 250 µM; in data set [6], 3730 ± 250 µM; in [7] it was 6890 ± 810 µM; in [8], 9900 ± 1150 µM. For the same molecule, the values for the Km in [9] and in data set [10] were 1440 ± 90 µM and 2870 ± 390 µM, respectively. In addition, the kcat in data set [3] stood at 0.376 ± 0.009 s⁻¹; in data set [4], 15.9 ± 2.2 s⁻¹; in data set [5] it was 18.3 ± 2.2 s⁻¹; in [6], 104 ± 3 s⁻¹; in data set [7], 12.4 ± 0.6 s⁻¹; in [8], 0.324 ± 0.013 s⁻¹. For the same molecule, the kcat was found to be 14 ± 0.3 s⁻¹ in [9] and 186 ± 2 s⁻¹ in data set [10]. In addition, the kcat/Km in data set [3] stood at 15.6 M⁻¹ s⁻¹; in data set [4], 8370 M⁻¹ s⁻¹; in data set [5] it was 9480 M⁻¹ s⁻¹; in data set [6] it was 27900 M⁻¹ s⁻¹; in [7], 1780 M⁻¹ s⁻¹; in [8] it was 32.7 M⁻¹ s⁻¹. For the same molecule, the results for the kcat/Km in data set [9] and in data set [10] were 9720 M⁻¹ s⁻¹ and 64800 M⁻¹ s⁻¹, respectively.

B2: TK1734 protein (2-PG phosphatase) (Thermococcus kodakarensis KOD1) (protein)
chain: MTRKIGIIFDMDGVIYRGSEPINGAKEVIEFLKERKIPFLFLTNNSTRDPAMYREKLLSMGIDVPEDVIVTSGLATRLYMEKHFEPGEVFVIGGKGLLREMERLGWGVVSLEDARKGAWKRIKHVVVGLDPELTYEKLKYGTLAIRNGASFIGTNPDTTYPAEEGLYPGAGAIIAALRASTDREPVIIGKPNEPAYEVVKDKLGDVEELWMVGDRLDTDIAFAKRFGMKAIMVLTGVSTLKDVAESGIKPNLVLPDVGELKRYLEAAL
In the case of B2, in data set [11] (setting [15]), the Km stood at 1750 ± 220 µM, the turnover number (kcat) amounted to 65.6 ± 2.5 s⁻¹ and the kcat/Km amounted to 37500 M⁻¹ s⁻¹.

B3: TK2301 protein (Thermococcus kodakarensis KOD1) (protein)
chain: MTIKAISVDIDGTITYPDRRLHEKALEAIRLAESLGVPVMLVTGNTVQFGEAAAILIGTSGPVVGEDGGALSIKEGKLRKRVYLTNMDEEWILWGELKKRYPEALLSFSMPERKAGLVVLRTVPVKAVRELIKELGLNLIAVDSGFAIHIKKPWINKGTGIEKACEYLGISPKEVAHIGDGENDLDAFGVVGYRVAVAQAPESLKEKADYVTTKPYGEGGAEAIEHILRKFGYLPEEKT
Consider B3, for which the Km in [12] was determined as 238 ± 44 µM; in data set [13], 979 ± 157 µM; in [14], 1250 ± 280 µM; in [11] (setting [16]), 1220 ± 90 µM. In addition, the kcat worked out at 30.1 ± 1.3 s⁻¹ in data set [12], 16.3 ± 0.5 s⁻¹ in data set [13], 17.1 ± 1 s⁻¹ in data set [14] and 21.2 ± 0.4 s⁻¹ in data set [11] (setting [16]). Also, the kcat/Km in data set [12] stood at 126000 M⁻¹ s⁻¹; in data set [13], 16600 M⁻¹ s⁻¹; in data set [14], 13700 M⁻¹ s⁻¹; in [11] (setting [16]), 17400 M⁻¹ s⁻¹.

B4: TK0683 protein (GLDH) (Thermococcus kodakarensis KOD1) (protein)
chain: MRPKVFITRAIPENGIEMLKEHFEVEVWPEEREIPREVLLKKVRDVDALVTMLSERIDSEVFDAAPRLRIVANYAVGYDNIDVEEATRRGIYVTNTPDVLTDATADFAWTLLLATARRLIEADHFTRSGEWKRRGIAWHPRWFLGYDVYGKTIGIVGFGRIGQAVARRARGFGMRILYYSRSRKPEAEKELGAEFRSLEDLLRESDFVVLAVPLTKETQYMINEERLRLMKKTAILVNIARGKVVDTKALMKALKEGWIAGAGLDVYEEEPYYNEELFSLKNVVLAPHIGSATYGAREGMAELVARNLIAFKNGEVPPTLVNKEVVKVRKPGF
Take B4: the Km in data set [3] worked out at 440 ± 60 µM; in data set [6] it was 310 ± 70 µM; in [8] it was 440 ± 60 µM; in data set [10] it was 1490 ± 800 µM. For the same molecule, the kcat in data set [3] was determined as 0.213 ± 0.005 s⁻¹; in [6] it was 3130 ± 462 s⁻¹; in data set [8], 0.105 ± 0.003 s⁻¹; in data set [10], 2030 ± 92 s⁻¹. Also, the kcat/Km in data set [3] was 490 M⁻¹ s⁻¹; in [6] it was 1e+07 M⁻¹ s⁻¹; in data set [8], 240 M⁻¹ s⁻¹; in data set [10] it was 1.36e+06 M⁻¹ s⁻¹.
